The source of these data is paper PMC12416549 (2024).

First the molecules themselves.
T1: TNFR1 (Homo sapiens, UniProt P19438)
T1 chain: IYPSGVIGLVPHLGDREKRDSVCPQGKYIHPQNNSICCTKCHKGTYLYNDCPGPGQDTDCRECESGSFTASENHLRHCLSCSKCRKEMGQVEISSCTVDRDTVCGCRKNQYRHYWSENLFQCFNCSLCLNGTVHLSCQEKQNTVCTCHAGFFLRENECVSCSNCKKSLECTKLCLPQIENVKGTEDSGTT

B1: H24E (designed binder)
chain: SMEEEVEKAAKEYEKKKKEAIEKELEKLKAKDKEAAERFLKELEEAAKEYAKDEAKTMSEEEAKRRAKKYKEKVLLSELSEEEQKEIKEAEEKLVRTILKYVEEAAK
B2: K48S (designed binder)
chain: SMEEEVEKAAKEYEKKKKEAIEKHLEKLKAKDKEAAERFLKELEEAASEYAKDEAKTMSEEEAKRRAKKYKEKVLLSELSEEEQKEIKEAEEKLVRTILKYVEEAAK
B3: Y70R (designed binder)
chain: SMEEEVEKAAKEYEKKKKEAIEKHLEKLKAKDKEAAERFLKELEEAAKEYAKDEAKTMSEEEAKRRAKKRKEKVLLSELSEEEQKEIKEAEEKLVRTILKYVEEAAK
B4: K69A (designed binder)
chain: SMEEEVEKAAKEYEKKKKEAIEKHLEKLKAKDKEAAERFLKELEEAAKEYAKDEAKTMSEEEAKRRAKAYKEKVLLSELSEEEQKEIKEAEEKLVRTILKYVEEAAK
B5: L99H (designed binder)
chain: SMEEEVEKAAKEYEKKKKEAIEKHLEKLKAKDKEAAERFLKELEEAAKEYAKDEAKTMSEEEAKRRAKKYKEKVLLSELSEEEQKEIKEAEEKLVRTIHKYVEEAAK
B6: E49Q (designed binder)
chain: SMEEEVEKAAKEYEKKKKEAIEKHLEKLKAKDKEAAERFLKELEEAAKQYAKDEAKTMSEEEAKRRAKKYKEKVLLSELSEEEQKEIKEAEEKLVRTILKYVEEAAK
B7: A105E (designed binder)
chain: SMEEEVEKAAKEYEKKKKEAIEKHLEKLKAKDKEAAERFLKELEEAAKEYAKDEAKTMSEEEAKRRAKKYKEKVLLSELSEEEQKEIKEAEEKLVRTILKYVEEEAK
B8: S59C (designed binder)
chain: SMEEEVEKAAKEYEKKKKEAIEKHLEKLKAKDKEAAERFLKELEEAAKEYAKDEAKTMCEEEAKRRAKKYKEKVLLSELSEEEQKEIKEAEEKLVRTILKYVEEAAK
B9: I21H (designed binder)
chain: SMEEEVEKAAKEYEKKKKEAHEKHLEKLKAKDKEAAERFLKELEEAAKEYAKDEAKTMSEEEAKRRAKKYKEKVLLSELSEEEQKEIKEAEEKLVRTILKYVEEAAK
B10: K107W (designed binder)
chain: SMEEEVEKAAKEYEKKKKEAIEKHLEKLKAKDKEAAERFLKELEEAAKEYAKDEAKTMSEEEAKRRAKKYKEKVLLSELSEEEQKEIKEAEEKLVRTILKYVEEAAW
B11: K29W (designed binder)
chain: SMEEEVEKAAKEYEKKKKEAIEKHLEKLWAKDKEAAERFLKELEEAAKEYAKDEAKTMSEEEAKRRAKKYKEKVLLSELSEEEQKEIKEAEEKLVRTILKYVEEAAK
B12: K88G (designed binder)
chain: SMEEEVEKAAKEYEKKKKEAIEKHLEKLKAKDKEAAERFLKELEEAAKEYAKDEAKTMSEEEAKRRAKKYKEKVLLSELSEEEQKEIGEAEEKLVRTILKYVEEAAK
B13: E14W (designed binder)
chain: SMEEEVEKAAKEYWKKKKEAIEKHLEKLKAKDKEAAERFLKELEEAAKEYAKDEAKTMSEEEAKRRAKKYKEKVLLSELSEEEQKEIKEAEEKLVRTILKYVEEAAK
B14: L94A (designed binder)
chain: SMEEEVEKAAKEYEKKKKEAIEKHLEKLKAKDKEAAERFLKELEEAAKEYAKDEAKTMSEEEAKRRAKKYKEKVLLSELSEEEQKEIKEAEEKAVRTILKYVEEAAK
B15: L94W (designed binder)
chain: SMEEEVEKAAKEYEKKKKEAIEKHLEKLKAKDKEAAERFLKELEEAAKEYAKDEAKTMSEEEAKRRAKKYKEKVLLSELSEEEQKEIKEAEEKWVRTILKYVEEAAK
B16: E42M (designed binder)
chain: SMEEEVEKAAKEYEKKKKEAIEKHLEKLKAKDKEAAERFLKMLEEAAKEYAKDEAKTMSEEEAKRRAKKYKEKVLLSELSEEEQKEIKEAEEKLVRTILKYVEEAAK
B17: A105Y (designed binder)
chain: SMEEEVEKAAKEYEKKKKEAIEKHLEKLKAKDKEAAERFLKELEEAAKEYAKDEAKTMSEEEAKRRAKKYKEKVLLSELSEEEQKEIKEAEEKLVRTILKYVEEYAK
B18: A63F (designed binder)
chain: SMEEEVEKAAKEYEKKKKEAIEKHLEKLKAKDKEAAERFLKELEEAAKEYAKDEAKTMSEEEFKRRAKKYKEKVLLSELSEEEQKEIKEAEEKLVRTILKYVEEAAK
B19: L28D (designed binder)
chain: SMEEEVEKAAKEYEKKKKEAIEKHLEKDKAKDKEAAERFLKELEEAAKEYAKDEAKTMSEEEAKRRAKKYKEKVLLSELSEEEQKEIKEAEEKLVRTILKYVEEAAK
B20: E12P (designed binder)
chain: SMEEEVEKAAKPYEKKKKEAIEKHLEKLKAKDKEAAERFLKELEEAAKEYAKDEAKTMSEEEAKRRAKKYKEKVLLSELSEEEQKEIKEAEEKLVRTILKYVEEAAK
B21: A35M (designed binder)
chain: SMEEEVEKAAKEYEKKKKEAIEKHLEKLKAKDKEMAERFLKELEEAAKEYAKDEAKTMSEEEAKRRAKKYKEKVLLSELSEEEQKEIKEAEEKLVRTILKYVEEAAK
B22: I21P (designed binder)
chain: SMEEEVEKAAKEYEKKKKEAPEKHLEKLKAKDKEAAERFLKELEEAAKEYAKDEAKTMSEEEAKRRAKKYKEKVLLSELSEEEQKEIKEAEEKLVRTILKYVEEAAK
B23: K52W (designed binder)
chain: SMEEEVEKAAKEYEKKKKEAIEKHLEKLKAKDKEAAERFLKELEEAAKEYAWDEAKTMSEEEAKRRAKKYKEKVLLSELSEEEQKEIKEAEEKLVRTILKYVEEAAK
B24: I98W (designed binder)
chain: SMEEEVEKAAKEYEKKKKEAIEKHLEKLKAKDKEAAERFLKELEEAAKEYAKDEAKTMSEEEAKRRAKKYKEKVLLSELSEEEQKEIKEAEEKLVRTWLKYVEEAAK
B25: T57G (designed binder)
chain: SMEEEVEKAAKEYEKKKKEAIEKHLEKLKAKDKEAAERFLKELEEAAKEYAKDEAKGMSEEEAKRRAKKYKEKVLLSELSEEEQKEIKEAEEKLVRTILKYVEEAAK
B26: R66I (designed binder)
chain: SMEEEVEKAAKEYEKKKKEAIEKHLEKLKAKDKEAAERFLKELEEAAKEYAKDEAKTMSEEEAKRIAKKYKEKVLLSELSEEEQKEIKEAEEKLVRTILKYVEEAAK
B27: A51L (designed binder)
chain: SMEEEVEKAAKEYEKKKKEAIEKHLEKLKAKDKEAAERFLKELEEAAKEYLKDEAKTMSEEEAKRRAKKYKEKVLLSELSEEEQKEIKEAEEKLVRTILKYVEEAAK
B28: E92M (designed binder)
chain: SMEEEVEKAAKEYEKKKKEAIEKHLEKLKAKDKEAAERFLKELEEAAKEYAKDEAKTMSEEEAKRRAKKYKEKVLLSELSEEEQKEIKEAEMKLVRTILKYVEEAAK
B29: E89Q (designed binder)
chain: SMEEEVEKAAKEYEKKKKEAIEKHLEKLKAKDKEAAERFLKELEEAAKEYAKDEAKTMSEEEAKRRAKKYKEKVLLSELSEEEQKEIKQAEEKLVRTILKYVEEAAK
B30: L76D (designed binder)
chain: SMEEEVEKAAKEYEKKKKEAIEKHLEKLKAKDKEAAERFLKELEEAAKEYAKDEAKTMSEEEAKRRAKKYKEKVLDSELSEEEQKEIKEAEEKLVRTILKYVEEAAK
B31: K11C (designed binder)
chain: SMEEEVEKAACEYEKKKKEAIEKHLEKLKAKDKEAAERFLKELEEAAKEYAKDEAKTMSEEEAKRRAKKYKEKVLLSELSEEEQKEIKEAEEKLVRTILKYVEEAAK
B32: E42G (designed binder)
chain: SMEEEVEKAAKEYEKKKKEAIEKHLEKLKAKDKEAAERFLKGLEEAAKEYAKDEAKTMSEEEAKRRAKKYKEKVLLSELSEEEQKEIKEAEEKLVRTILKYVEEAAK
B33: K16N (designed binder)
chain: SMEEEVEKAAKEYEKNKKEAIEKHLEKLKAKDKEAAERFLKELEEAAKEYAKDEAKTMSEEEAKRRAKKYKEKVLLSELSEEEQKEIKEAEEKLVRTILKYVEEAAK

The target of the experiment is T1, TNFR1. Description: yeast display SC50.
For B1, the “apparent Kd (screen)” value stood at 0.49 nM.

Turning to B2, the “apparent Kd (screen)” value came out at 0.446 nM.

For B3, the “apparent Kd (screen)” value is 5.31 nM.

In the case of B4, the “apparent Kd (screen)” value is 0.49 nM.

With B5, the “apparent Kd (screen)” value amounted to 4.83 nM.

With B6, the “apparent Kd (screen)” value worked out at 3 nM.

As to B7, the “apparent Kd (screen)” value is 0.446 nM.

Consider B8, for which the “apparent Kd (screen)” value worked out at 2.73 nM.

As for B9, the “apparent Kd (screen)” value worked out at 1.05 nM.

With B10, the “apparent Kd (screen)” value worked out at 5.84 nM.

Consider B11, for which the “apparent Kd (screen)” value came to 0.869 nM.

Consider B12, for which the “apparent Kd (screen)” value worked out at 0.49 nM.

In the case of B13, the “apparent Kd (screen)” value is 10.4 nM.

As for B14, the “apparent Kd (screen)” value was determined as 0.49 nM.

B15: the “apparent Kd (screen)” value is 0.446 nM.

Turning to B16, the “apparent Kd (screen)” value amounted to 12.5 nM.

B17: the “apparent Kd (screen)” value amounted to 2.73 nM.

As to B18, the “apparent Kd (screen)” value was determined as 10.4 nM.

As to B19, the “apparent Kd (screen)” value is 0.956 nM.

For the molecule B20, the “apparent Kd (screen)” value was 9.41 nM.

As for B21, the “apparent Kd (screen)” value was found to be 0.446 nM.

As for B22, the “apparent Kd (screen)” value turned out to be 13.8 nM.

Take B23: the “apparent Kd (screen)” value came out at 5.31 nM.

With B24, the “apparent Kd (screen)” value stood at 1.86 nM.

Regarding B25, the “apparent Kd (screen)” value amounted to 10.4 nM.

As to B26, the “apparent Kd (screen)” value was 22.2 nM.

On to B27, for which the “apparent Kd (screen)” value was found to be 2.73 nM.

On to B28, for which the “apparent Kd (screen)” value was 12.5 nM.

Take B29: the “apparent Kd (screen)” value is 1.05 nM.

As for B30, the “apparent Kd (screen)” value came to 1.16 nM.

Take B31: the “apparent Kd (screen)” value turned out to be 1.69 nM.

Turning to B32, the “apparent Kd (screen)” value stood at 12.5 nM.

Consider B33, for which the “apparent Kd (screen)” value turned out to be 0.335 nM.
